In the data set the target is OGG1 (8-oxoguanine DNA glycosylase) (UniProt O15527 1-345). Put plainly: EMSA; EMSA: DNA-binding buffer (composition not given), 10 min on ice then 10 min at 37 C, 7% native PAGE in 1x TBE; pull-down: 4 C, 12 h, 1 mM PMSF, PBS washes. To be noted: protein: commercial; label: 5'-FAM on strand 2; blunt.
OGG1 (8-oxoguanine DNA glycosylase), sequence (O15527 whole entry): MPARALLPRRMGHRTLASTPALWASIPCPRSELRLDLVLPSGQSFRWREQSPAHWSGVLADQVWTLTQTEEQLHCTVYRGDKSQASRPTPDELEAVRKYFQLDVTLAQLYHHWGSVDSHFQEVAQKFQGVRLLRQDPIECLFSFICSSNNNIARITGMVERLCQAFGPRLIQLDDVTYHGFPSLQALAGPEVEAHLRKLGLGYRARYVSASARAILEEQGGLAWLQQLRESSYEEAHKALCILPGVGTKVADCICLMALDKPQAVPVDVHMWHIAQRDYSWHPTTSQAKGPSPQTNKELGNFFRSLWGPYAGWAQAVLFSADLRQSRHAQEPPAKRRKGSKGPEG

B1: 8-oxoG-SYT7 (FAM) (dsDNA)
DNA 1: CGGGCGGGCGGGAGGGCTGGCGGGCGGCCCCC
DNA 2: GGGGGCCGCCCGCCAGCCCTCCCGCCCGCCCG
modifications: 8-oxoG at position 12 of strand 1 (printed ...CGGoGAGGG...)
For B1, the binding result is “binds”.

The values above are taken from PMC11375530, “The 8‐oxoguanine DNA glycosylase‐synaptotagmin 7 pathway increases extracellular vesicle release and promotes tumour metastasis during oxidative stress”.
